From FireProtDB (doi:10.1021/bi00021a022)

Settings: Saccharomyces cerevisiae (strain ATCC 204508 / S288c), reversible: yes
[1] = pH 3.5, Thermal, DSC, Potassium acetate 50 mM
[2] = pH 4, Thermal, DSC, Potassium acetate 50 mM
[3] = pH 4.6, Thermal, DSC, Potassium acetate 50 mM
[4] = pH 5, Thermal, DSC, Potassium acetate 50 mM
[5] = pH 7, 22 °C, GdnHCl, Fluorescence, Potassium phosphate 0.1 M
[6] = pH 3.5, 27 °C, Thermal, DSC, Potassium acetate 50 mM, structure 1YCC
[7] = pH 3.5, Thermal, DSC, Potassium acetate 50 mM, structure 1YCC
[8] = pH 4, 27 °C, Thermal, DSC, Potassium acetate 50 mM, structure 1YCC
[9] = pH 4.6, Thermal, DSC, Potassium acetate 50 mM, structure 1YCC
[10] = pH 5, 27 °C, Thermal, DSC, Potassium acetate 50 mM, structure 1YCC
[11] = pH 5, Thermal, DSC, Potassium acetate 50 mM, structure 1YCC
[12] = pH 7, 22 °C, GdnHCl, Fluorescence, Potassium phosphate 0.1 M, structure 1YCC
[13] = pH 4.6, 27 °C, Thermal, DSC, Potassium acetate 50 mM, structure 1YCC
[14] = pH 4, Thermal, DSC, Potassium acetate 50 mM, structure 1YCC

Cytochrome c isoform 1 wild type, P00044, sequence (P00044 whole entry, canonical isoform): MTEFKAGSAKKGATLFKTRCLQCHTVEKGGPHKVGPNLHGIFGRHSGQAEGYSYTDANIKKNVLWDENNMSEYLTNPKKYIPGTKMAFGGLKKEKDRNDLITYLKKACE
Cytochrome c isoform 1 N58M, P00044, sequence (P00044 whole entry N58M, canonical isoform): as the sequence (P00044 whole entry, canonical isoform) above, with N58M counted along it
Cytochrome c isoform 1 N58V, P00044, sequence (P00044 whole entry N58V, canonical isoform): as the sequence (P00044 whole entry, canonical isoform) above, with N58V counted along it
Cytochrome c isoform 1 N58S, P00044, sequence (P00044 whole entry N58S, canonical isoform): as the sequence (P00044 whole entry, canonical isoform) above, with N58S counted along it
Cytochrome c isoform 1 N58Q, P00044, sequence (P00044 whole entry N58Q, canonical isoform): as the sequence (P00044 whole entry, canonical isoform) above, with N58Q counted along it
Cytochrome c isoform 1 N58A, P00044, sequence (P00044 whole entry N58A, canonical isoform): as the sequence (P00044 whole entry, canonical isoform) above, with N58A counted along it
Cytochrome c isoform 1 N58I, P00044, sequence (P00044 whole entry N58I, canonical isoform): as the sequence (P00044 whole entry, canonical isoform) above, with N58I counted along it
Cytochrome c isoform 1 N58H, P00044, sequence (P00044 whole entry N58H, canonical isoform): as the sequence (P00044 whole entry, canonical isoform) above, with N58H counted along it
Cytochrome c isoform 1 N58T, P00044, sequence (P00044 whole entry N58T, canonical isoform): as the sequence (P00044 whole entry, canonical isoform) above, with N58T counted along it

Substance | ddG of mutation (higher = less stable) [8] | unfolding free energy [8] | Tm [9] | change of melting temperature, mutant - wild type (higher = more stable) [9] | unfolding enthalpy (calorimetric) [9] | ddG of mutation (higher = less stable) [10] | unfolding free energy [10] | Tm [11] | change of melting temperature, mutant - wild type (higher = more stable) [11] | unfolding enthalpy (calorimetric) [11] | ddG of mutation (higher = less stable) [12] | denaturant midpoint (higher = more stable) [12] | unfolding free energy [12] | unfolding free energy [13] | ddG of mutation (higher = less stable) [13] | Tm [14] | change of melting temperature, mutant - wild type (higher = more stable) [14] | unfolding enthalpy (calorimetric) [14] | further results
Cytochrome c isoform 1 wild type, P00044 | – | – | – | – | – | – | – | – | – | – | – | – | – | – | – | – | – | – | unfolding free energy (pH 3.5, 27 °C, Thermal, DSC, Potassium acetate 50 mM): 1.64 kcal/mol; Tm [1]: 40.1 °C; unfolding enthalpy (calorimetric) [1]: 55.3 kcal/mol; unfolding free energy (pH 4, 27 °C, Thermal, DSC, Potassium acetate 50 mM): 2.52 kcal/mol; Tm [2]: 45.4 °C; unfolding enthalpy (calorimetric) [2]: 64.2 kcal/mol; unfolding free energy (pH 4.6, 27 °C, Thermal, DSC, Potassium acetate 50 mM): 4.03 kcal/mol; Tm [3]: 49.2 °C; unfolding enthalpy (calorimetric) [3]: 78.8 kcal/mol; unfolding free energy (pH 5, 27 °C, Thermal, DSC, Potassium acetate 50 mM): 5.62 kcal/mol; Tm [4]: 63.3 °C; unfolding enthalpy (calorimetric) [4]: 107 kcal/mol; denaturant midpoint (higher = more stable) [5]: 1.34 M; unfolding free energy [5]: 5.86 kcal/mol
Cytochrome c isoform 1 N58I, P00044 | -3.03 kcal/mol | 5.55 kcal/mol | 62.2 °C | 13 °C | 101 kcal/mol | -2.02 kcal/mol | 7.64 kcal/mol | 64.2 °C | 0.9 °C | 108 kcal/mol | -4.1 kcal/mol | 2.09 M | 9.96 kcal/mol | – | – | – | – | – | ddG of mutation (higher = less stable) [6]: -2.62 kcal/mol; unfolding free energy [6]: 4.26 kcal/mol; Tm [7]: 52.4 °C; change of melting temperature, mutant - wild type (higher = more stable) [7]: 12.3 °C; unfolding enthalpy (calorimetric) [7]: 80.7 kcal/mol
Cytochrome c isoform 1 N58Q, P00044 | – | – | 51.2 °C | 2 °C | 78.7 kcal/mol | – | – | – | – | – | – | 1.39 M | 5.02 kcal/mol | 3.95 kcal/mol | – | – | – | – | –
Cytochrome c isoform 1 N58H, P00044 | – | – | 47.5 °C | -1.7 °C | 64.1 kcal/mol | – | – | – | – | – | 1.7 kcal/mol | 1.41 M | 4.16 kcal/mol | 2.76 kcal/mol | 1.27 kcal/mol | – | – | – | –
Cytochrome c isoform 1 N58A, P00044 | – | – | 53.7 °C | 4.5 °C | 84 kcal/mol | – | – | – | – | – | -2.97 kcal/mol | 1.52 M | 8.83 kcal/mol | 4.66 kcal/mol | -0.63 kcal/mol | – | – | – | –
Cytochrome c isoform 1 N58S, P00044 | -0.74 kcal/mol | 3.26 kcal/mol | 51 °C | 1.8 °C | 78.7 kcal/mol | 1.29 kcal/mol | 4.33 kcal/mol | 52.6 °C | -10.7 °C | 83.2 kcal/mol | – | – | – | 3.98 kcal/mol | 0.05 kcal/mol | 46.7 °C | 1.3 °C | 70.8 kcal/mol | –
Cytochrome c isoform 1 N58L, P00044 | – | – | 62.1 °C | 12.9 °C | 97.4 kcal/mol | – | – | – | – | – | -4.73 kcal/mol | 2.17 M | 10.6 kcal/mol | 6.59 kcal/mol | -2.56 kcal/mol | – | – | – | –
Cytochrome c isoform 1 N58T, P00044 | -1.01 kcal/mol | 3.53 kcal/mol | 54.5 °C | 5.3 °C | 82.9 kcal/mol | 0.53 kcal/mol | 5.09 kcal/mol | 55.3 °C | -8 °C | 88.6 kcal/mol | -1.9 kcal/mol | 1.58 M | 7.76 kcal/mol | 4.62 kcal/mol | -0.59 kcal/mol | 49.2 °C | 3.8 °C | 75.3 kcal/mol | ddG of mutation (higher = less stable) [6]: -0.98 kcal/mol; unfolding free energy [6]: 2.62 kcal/mol; Tm [7]: 45.4 °C; change of melting temperature, mutant - wild type (higher = more stable) [7]: 5.3 °C; unfolding enthalpy (calorimetric) [7]: 63.4 kcal/mol
Cytochrome c isoform 1 N58V, P00044 | -2.44 kcal/mol | 4.96 kcal/mol | 58 °C | 8.8 °C | 92.4 kcal/mol | – | – | – | – | – | -2.02 kcal/mol | 1.77 M | 7.88 kcal/mol | 5.7 kcal/mol | -1.67 kcal/mol | 54.3 °C | 8.9 °C | 86.5 kcal/mol | –
Cytochrome c isoform 1 N58M, P00044 | -2.91 kcal/mol | 5.43 kcal/mol | 62.6 °C | 13.4 °C | 96 kcal/mol | – | – | – | – | – | -4.04 kcal/mol | 2.14 M | 9.9 kcal/mol | 6.28 kcal/mol | -2.25 kcal/mol | 58.9 °C | 13.5 °C | 89 kcal/mol | –
